# Measured values reported in patent US20070141716.
# Legend:
# [1] = target: UBC13/Uev1 heterodimer, P61088
# [2] = target: UbcH5c, P61077
# UbcH5c, P61077, sequence (P61077 whole entry): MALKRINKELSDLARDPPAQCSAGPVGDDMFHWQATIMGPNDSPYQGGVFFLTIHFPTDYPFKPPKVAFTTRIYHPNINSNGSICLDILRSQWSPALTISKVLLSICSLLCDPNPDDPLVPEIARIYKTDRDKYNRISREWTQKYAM
# UBC13/Uev1 heterodimer, P61088, sequence (P61088 whole entry, chain 1 of 2): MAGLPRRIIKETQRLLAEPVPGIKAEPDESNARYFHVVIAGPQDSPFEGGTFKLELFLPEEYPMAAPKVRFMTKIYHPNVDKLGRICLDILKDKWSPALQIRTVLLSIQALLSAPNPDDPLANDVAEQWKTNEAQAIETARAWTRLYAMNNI
# UBC13/Uev1 heterodimer, P61088, sequence (chain, as listed by the source, chain 2 of 2): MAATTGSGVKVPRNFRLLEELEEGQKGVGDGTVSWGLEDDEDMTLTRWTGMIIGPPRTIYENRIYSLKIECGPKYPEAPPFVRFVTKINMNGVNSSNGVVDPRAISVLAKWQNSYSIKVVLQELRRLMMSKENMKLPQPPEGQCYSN
protein,measurement,setting,value
glutathione-S-transferase protein (GST)-PEM-3-like fusion protein (protein) MMAAMLSHAYGPGGCGAAAAALNGEQAALLRRKSVNTTECVPVPSSEHVAEIVGRQGCKIKALRAKTNTYIKTPVRGEEPIFVVTGRKEDVAMAKREILSAAEHFSMIRASRNKNGPALGGLSCSPNLPGQTTVQVRVPYRVVGLVVGPKGATIKRIQQQTHTYIVTPSRDKEPVFEVTGMPENVDRAREEIEMHIAMRTGNYIELNEENDFHYNGTDVSFEGGTLGSAWLSSNPVPPSRARMISNYRNDSSSSLGSGSTDSYFGSNRLADFSPTSPFSTGNFWFGDTLPSVGSEDLAVDSPAFDSLPTSAQTIWTPFEPVNPLSGFGSDPSGNMKTQRRGSQPSTPRLSPTFPESIEHPLARRVRSDPPSTGNHVGLPIYIPAFSNGTNSYSSSNGGSTSSSPPESRRKHDCVICFENEVIAALVPCGHNLFCMECANKICEKRTPSCPVCQTAVTQAIQIHS,"free polyubiquitin chain formation, immunoblot",[1],free polyubiquitin chains were only generated in the presence of UBC13/Uev1 heterodimer and a complete ubiquitin conjugation system
same,"in vitro self-ubiquitination, anti-ubiquitin immunoblot",[1],high molecular weight PEM-3-like-ubiquitin adducts were detected by anti-ubiquitin immunoblot analysis
same,ubiquitin ligase activity by TR-FRET,[1],PEM-3-like acts as an E3 ligase with both UbcH5 and UBC13/Uev1
same,ubiquitin ligase activity by TR-FRET,[2],PEM-3-like acts as an E3 ligase with both UbcH5 and UBC13/Uev1
